# Patent publication US20200038462A1, “METHODS AND COMPOSITIONS OF OTC CONSTRUCTS AND VECTORS” (priority 2018, published 2020)
# Test system: HUH7 hepatocellular carcinoma cell line
# Experiment: OTC protein expression in transfected HUH7 cells, Western blot
# Format: cell-based, human
# Settings: FIGS. 14-15
# Text: The wt-hOTC was codon-optimized (CO) with different algorithms. The optimization process is aimed at improving translation and stability of the OTC mRNA by changing the nucleotide sequence while keeping the amino acid primary sequence unvaried. The wild-type OTC cDNA sequence and the codon-optimized (CO) LW4 sequence from WO 2015/138357 patent A2 (Wang L., Wilson J. M.) were also synthesized, to be used as comparison control (CO1). The nucleotide sequence of the different CO cDNAs differs with a range of 30-20% from the WT cDNA sequence. The vectors were then packaged into the AAV8 serotype and used to transduce Huh7 cells. Huh7 cells, co-transfected with the OTC constructs and the pGG2-eGFP plasmid (to normalize for transfection efficiency), were used to generate total RNA and proteins. mRNA, protein, and activity levels were analyzed using qRT-PCR and Western blotting.
# The human hepatocellular carcinoma cell line HUH7 was used to evaluate the expression levels of AAV8-hOTC-CO constructs. The AAV8-hOTC-CO1 (C01), AAV8-hOTC-CO2 (CO2), AAV8-hOTC-CO3 (CO3), AAV8-hOTC-006 (CO6), AAV8-hOTC-CO7 (CO7), AAV8-hOTC-009 (CO9) construct plasmids, together with a pGFP plasmid as an internal control, were transiently co-transfected in HUH7 cells with Lipofectamine (Lipofectamine 2000, Thermo Fisher Scientific). Twenty-four hours post-transfection, total protein lysates were prepared and analyzed for OTC expression by Western blot analysis.
row,Molecule,OTC protein expression levels compared to hOTC-wt (in words)
1,"CO9-2: hOTC construct; CO9 re-optimized by IDT, SEQ ID NO:10 (nucleic acid) DNA: GTCGACGCCGCCACCATGCTCTTCAATCTCCGAATACTCCTGAATAATGCGGCATTCAGAAATGGGCACAATTTTATGGTGCGAAATTTTCGATGTGGGCAGCCCTTGCAAAATAAAGTACAACTTAAAGGCAGAGATCTTCTTACGCTCAAAAACTTTACCGGCGAAGAGATTAAGTATATGTTGTGGCTGTCTGCTGACCTTAAATTCCGAATAAAACAGAAAGGCGAATACCTTCCGCTCCTCCAAGGGAAATCTCTTGGGATGATTTTCGAGAAGAGATCTACGCGCACGCGGCTTTCAACGGAAACTGGATTCGCACTCTTGGGCGGCCACCCATGTTTTCTGACTACTCAAGATATTCACTTGGGAGTAAATGAGTCACTTACTGACACGGCAAGAGTGCTCTCTAGCATGGCTGATGCAGTGCTGGCTAGAGTCTATAAACAATCCGACCTGGATACACTCGCCAAGGAAGCTTCAATACCAATAATCAACGGGTTGTCTGACTTGTACCACCCTATCCAAATCTTGGCCGATTATTTGACACTCCAGGAACACTACTCAAGTCTGAAGGGACTTACGCTTAGCTGGATAGGTGATGGTAACAACATCCTTCATAGCATTATGATGTCAGCCGCCAAATTCGGCATGCATCTGCAAGCAGCGACTCCCAAGGGCTATGAGCCTGATGCCTCAGTCACCAAACTGGCGGAGCAGTACGCTAAAGAGAATGGGACGAAGCTTTTGCTGACGAACGATCCCCTGGAGGCGGCTCACGGGGGAAATGTGCTTATCACGGATACCTGGATAAGTATGGGGCAGGAGGAAGAAAAAAAAAAGCGATTGCAAGCCTTTCAAGGTTACCAGGTTACAATGAAAACTGCGAAAGTCGCCGCATCTGACTGGACTTTTCTGCACTGTCTTCCGAGAAAGCCGGAAGAGGTGGACGACGAAGTGTTCTACTCTCCGCGCTCTCTCGTGTTTCCTGAAGCAGAGAACCGAAAGTGGACCATAATGGCGGTAATGGTCAGCCTCTTGACTGATTATTCCCCTCAGCTGCAGAAGCCAAAGTTTTGATAAGAATTC",significantly reduced
2,"CO9-1: hOTC construct; CO9 re-optimized by GeneArt, SEQ ID NO:9 (nucleic acid) DNA: GTCGACGCCGCCACCATGCTGTTTAATCTGAGAATCCTGCTGAACAATGCTGCTTTCCGCAATGGGCACAACTTTATGGTCCGAAACTTCCGATGTGGACAGCCTCTGCAGAACAAGGTGCAGCTGAAGGGCCGGGACCTGCTGACCCTGAAGAATTTCACAGGCGAGGAGATCAAATACATGCTGTGGCTGAGCGCCGATCTGAAGTTTAGGATCAAGCAGAAGGGCGAGTATCTGCCACTGCTGCAGGGCAAGTCCCTGGGCATGATCTTCGAGAAGCGGAGCACCCGGACAAGACTGAGCACCGAGACAGGATTCGCACTGCTGGGAGGACACCCATGCTTTCTGACAACACAGGACATCCACCTGGGCGTGAACGAGTCTCTGACCGACACAGCACGGGTGCTGAGCTCCATGGCAGATGCCGTGCTGGCCAGAGTGTACAAGCAGAGCGACCTGGATACCCTGGCCAAGGAGGCCTCCATCCCCATCATCAATGGCCTGTCTGACCTGTATCACCCAATCCAGATCCTGGCCGATTACCTGACCCTGCAGGAGCACTATTCTAGCCTGAAGGGCCTGACACTGAGCTGGATCGGCGACGGCAACAATATCCTGCACAGCATCATGATGTCCGCCGCCAAGTTTGGAATGCACCTGCAGGCAGCAACCCCAAAGGGATACGAGCCCGATGCCTCCGTGACAAAGCTGGCCGAGCAGTATGCCAAGGAGAACGGCACCAAGCTGCTGCTGACAAATGACCCACTGGAGGCAGCACACGGAGGAAACGTGCTGATCACCGATACATGGATCTCTATGGGCCAGGAGGAGGAGAAGAAGAAGCGGCTGCAGGCCTTCCAGGGCTACCAGGTGACCATGAAGACAGCCAAGGTGGCCGCCTCTGATTGGACCTTTCTGCACTGTCTGCCCCGGAAGCCTGAGGAGGTGGACGATGAGGTGTTCTATTCCCCTCGGAGCCTGGTGTTCCCAGAGGCAGAGAATCGCAAGTGGACAATCATGGCCGTGATGGTCTCCCTGCTGACTGACTACTCCCCACAGCTGCAGAAGCCCAAGTTTTGATAAGAATTC",significantly reduced
3,"CO6-1: hOTC construct; CO6 re-optimized by GeneArt, SEQ ID NO:6 (nucleic acid) DNA: GTCGACGCCGCCACCATGCTGTTCAACCTGCGGATCCTGCTGAACAACGCCGCCTTCAGAAACGGCCACAACTTCATGGTCCGAAACTTCAGATGCGGCCAGCCTCTGCAGAACAAGGTGCAGCTGAAGGGCAGAGATCTGCTGACCCTGAAGAACTTCACCGGCGAAGAGATCAAATACATGCTGTGGCTGAGCGCCGACCTGAAGTTCCGGATTAAGCAGAAGGGCGAGTACCTGCCACTGCTGCAGGGAAAGTCTCTGGGCATGATCTTCGAGAAGCGGAGCACCAGAACCAGACTGAGCACCGAGACAGGCTTTGCCCTGCTCGGAGGACACCCCTGCTTTCTGACAACACAGGATATCCACCTGGGCGTGAACGAGAGCCTGACCGATACAGCCAGAGTGCTGAGCAGCATGGCTGATGCCGTGCTGGCCAGAGTGTACAAGCAGAGCGATCTGGACACCCTGGCCAAAGAGGCCAGCATTCCCATCATCAACGGCCTGAGCGACCTGTATCACCCCATCCAGATCCTGGCCGACTACCTGACACTGCAAGAGCACTACAGCAGCCTGAAGGGACTGACCCTGTCTTGGATCGGCGACGGCAACAACATCCTGCACTCTATTATGATGAGCGCCGCCAAGTTCGGAATGCACCTGCAGGCCGCTACACCCAAGGGCTATGAGCCTGATGCCAGCGTGACAAAGCTGGCCGAGCAGTACGCCAAAGAGAACGGCACAAAGCTGCTGCTGACCAACGATCCCCTGGAAGCTGCCCACGGCGGCAATGTGCTGATCACCGATACCTGGATCTCTATGGGCCAAGAGGAAGAGAAGAAGAAGCGGCTGCAGGCCTTCCAGGGCTACCAAGTGACAATGAAGACCGCCAAGGTGGCCGCCAGCGATTGGACCTTTCTGCACTGCCTGCCTCGGAAGCCTGAAGAGGTGGACGACGAGGTGTTCTACAGCCCTAGAAGCCTGGTGTTCCCCGAGGCCGAGAACAGAAAGTGGACCATCATGGCTGTGATGGTGTCCCTGCTGACCGACTACTCTCCCCAGCTGCAGAAGCCCAAGTTCTGATAAGAATTC",significantly reduced
